B1: Halo-TRAK2 [not stated] / Myc-KIF5B [mouse] (parent complex)
chain 1: MSQSQNAIFTSPTGEENLMNSNHRDSESITDVCSNEDLPEVELVSLLEEQLPQYRLKVDTLFLYENQDWTQSPHQRQHASDALSPVLAEETFRYMILGTDRVEQMTKTYNDIDMVTHLLAERDRDLELAARIGQALLKRNHVLSEQNESLEEQLGQAFDQVNQLQHELCKKDELLRIVSIASEESETDSSCSTPLRFNESFSLSQGLLQLEMLQEKLKELEEENMALRSKACHIKTETVTYEEKEQQLVSDCVKELRETNAQMSRMTEELSGKSDELIRYQEELSSLLSQIVDLQHKLKEHVIEKEELKLHLQASKDAQRQLTMELHELQDRNMECLGMLHESQEEIKELRSRSGPTAHLYFSQSYGAFTGESLAAEIEGTMRKKLSLDEESSLFKQKAQQKRVFDTVRIANDTRGRSISFPALLPIPGSNRSSVIMTAKPFESGLQQTEDKSLLNQGSSSEEVAGSSQKMGQPGPSGDSDLATALHRLSLRRQNYLSEKQFFAEEWQRKIQVLADQKEGVSGCVTPTESLASLCTTQSEITDLSSASCLRGFMPEKLQIVKPLEGSQTLYHWQQLAQPNLGTILDPRPGVITKGFTQLPGDAIYHISDLEEDEEEGITFQVQQPLEVEEKLSTSKPVTGIFLPPITSAGGPVTVATANPGKCLSCTNSTFTFTTCRILHPSDITQVTPSSGFPSLSCGSSGSSSSNTAVNSPALSYRLSIGESITNRRDSTTTFSSTMSLAKLLQERGISAKVYHSPISENPLQPLPKSLAIPSTPPNSPSHSPCPSPLPFEPRVHLSENFLASRPAETFLQEMYGLRPSRNPPDVGQLKMNLVDRLKRLGIARVVKNPGAQENGRCQEAEIGPQKPDSAVYLNSGSSLLGGLRRNQSLPVIMGSFAAPVCTSSPKMGVLKED
chain 2: MADPAECNIKVMCRFRPLNESEVNRGDKYVAKFQGEDTVMIASKPYAFDRVFQSSTSQEQVYNDCAKKIVKDVLEGYNGTIFAYGQTSSGKTHTMEGKLHDPEGMGIIPRIVQDIFNYIYSMDENLEFHIKVSYFEIYLDKIRDLLDVSKTNLSVHEDKNRVPYVKGCTERFVCSPDEVMDTIDEGKSNRHVAVTNMNEHSSRSHSIFLINVKQENTQTEQKLSGKLYLVDLAGSEKVSKTGAEGAVLDEAKNINKSLSALGNVISALAEGSTYVPYRDSKMTRILQDSLGGNCRTTIVICCSPSSYNESETKSTLLFGQRAKTIKNTVCVNVELTAEQWKKKYEKEKEKNKTLRNTIQWLENELNRWRNGETVPIDEQFDKEKANLEAFTADKDIAITSDKPAAAVGMAGSFTDAERRKCEEELAKLYKQLDDKDEEINQQSQLVEKLKTQMLDQEELLASTRRDQDNMQAELNRLQAENDASKEEVKEVLQALEELAVNYDQKSQEVEDKTKEYELLSDELNQKSATLASIDAELQKLKEMTNHQKKRAAEMMASLLKDLAEIGIAVGNNDVKQPEGTGMIDEEFTVARLYISKMKSEVKTMVKRCKQLESTQTESNKKMEENEKELAACQLRISQHEAKIKSLTEYLQNVEQKKRQLEESVDSLGEELVQLRAQEKVHEMEKEHLNKVQTANEVKQAVEQQIQSHRETHQKQISSLRDEVEAKEKLITDLQDQNQKMVLEQERLRVEHERLKATDQEKSRKLHELTVMQDRREQARQDLKGLEETVAKELQTLHNLRKLFVQDLATRVKKSAEVDSDDTGGSAAQKQKISFLENNLEQLTKVHKQLVRDNADLRCELPKLEKRLRATAERVKALESALKEAKENASRDRKRYQQEVDRIKEAVRSKNMARRGHSAQIAKPIRPGQHPAASPTHPGTVRGGGSFVQNNQPVGLRGGGGKQS

Variants of: B1
Test: co-immunoprecipitation (Halo antibody IP, western blot quantification); extracts from COS-7 cells transfected with Myc-KIF5B and Halo-tagged constructs; mean ± s.d. from three independent experiments; parent: 0.65; read off a plot

Row | response | Variant
1 | ~0.61 | chain 1 A129V, chain 1 A130V
2 | ~0.6 | chain 1 I132D

From article PMC8319186, “Mitochondrial adaptor TRAK2 activates and functionally links opposing kinesin and dynein motors” (Nature Communications, 2021)
